{"source": "paper PMC2639713", "biological_target": "T1, mini-vRNAP K176C/S885C (Bacteriophage N4 (coliphage), UniProt Q859P9 998-2103, K1173C;S1882C)", "T1 sequence": "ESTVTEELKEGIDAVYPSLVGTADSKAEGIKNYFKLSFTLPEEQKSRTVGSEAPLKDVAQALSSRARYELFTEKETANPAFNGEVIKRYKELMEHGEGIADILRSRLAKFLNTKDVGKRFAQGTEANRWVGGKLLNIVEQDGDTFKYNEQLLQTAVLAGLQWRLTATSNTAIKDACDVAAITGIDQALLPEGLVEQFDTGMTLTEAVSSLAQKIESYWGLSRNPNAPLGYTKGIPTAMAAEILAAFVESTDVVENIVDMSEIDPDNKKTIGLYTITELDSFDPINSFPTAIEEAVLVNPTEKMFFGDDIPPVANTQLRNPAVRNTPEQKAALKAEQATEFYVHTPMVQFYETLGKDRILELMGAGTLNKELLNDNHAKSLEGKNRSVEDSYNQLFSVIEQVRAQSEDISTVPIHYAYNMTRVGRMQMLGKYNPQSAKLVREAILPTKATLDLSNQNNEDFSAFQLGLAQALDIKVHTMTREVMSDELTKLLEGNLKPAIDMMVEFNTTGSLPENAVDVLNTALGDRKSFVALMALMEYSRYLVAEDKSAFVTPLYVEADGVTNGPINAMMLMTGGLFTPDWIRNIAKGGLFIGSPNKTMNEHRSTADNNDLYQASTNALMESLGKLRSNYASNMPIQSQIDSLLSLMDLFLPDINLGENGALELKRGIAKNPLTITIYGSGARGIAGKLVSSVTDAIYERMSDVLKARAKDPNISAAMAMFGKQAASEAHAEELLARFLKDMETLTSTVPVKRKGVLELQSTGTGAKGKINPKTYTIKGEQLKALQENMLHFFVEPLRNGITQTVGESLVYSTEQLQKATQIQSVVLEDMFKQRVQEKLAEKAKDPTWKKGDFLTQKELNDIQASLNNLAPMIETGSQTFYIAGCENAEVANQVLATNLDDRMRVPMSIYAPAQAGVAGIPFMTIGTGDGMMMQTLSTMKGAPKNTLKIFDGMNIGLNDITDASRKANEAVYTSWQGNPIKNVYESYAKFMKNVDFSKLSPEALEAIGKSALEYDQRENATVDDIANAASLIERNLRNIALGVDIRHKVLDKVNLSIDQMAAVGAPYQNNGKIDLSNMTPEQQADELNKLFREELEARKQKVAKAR", "assay": "UV cross-linking"}
{"binder": "GAAGCGTAGCTTC (structured_DNA, 5-iodo-dU at position 7 (-11), written as T)", "note": "[13mer -11 5-IdU promoter hairpin (-17 to -5)]", "values": [{"measurement": "binding result", "value": "binds"}]}
